Source: US20220401482A1, “GENERATION OF CD38 KNOCK-OUT PRIMARY AND EXPANDED HUMAN NK CELLS” (RESEARCH INSTITUTE AT NATIONWIDE CHILDREN'S HOSPITAL, priority 2019, published 2022)

Molecular target: CD38 (cluster of differentiation 38) on human NK cells and multiple myeloma cells (human) (UniProt P28907)
Test: cell-based or functional assay

For daratumumab (antibody), the sensitivity to daratumumab-mediated fratricide, unmodified control (CD38-expressing) NK cells was 77%.
